B1: Ligand 018P (ligand)
chain: DGHHHHHHGSLQDSEVNQEAKPEVKPEVKPETHINLKVSDGSSEIFFKIKKTTPLRRLMEAFAKRQGKEMDSLTFLYDGIEIQADQTPEDLDMEDNDIIEAHREQIGGLEVLFQGPDKFLKHLTGPLYFSPKCSKHFHRLYHNTRDCTIPAYYKRCARLLTRLAVSPVCMEDKQ
notes: also called Ligand 18P
B2: Ligand 019P (ligand)
chain: DGHHHHHHGSLQDSEVNQEAKPEVKPEVKPETHINLKVSDGSSEIFFKIKKTTPLRRLMEAFAKRQGKEMDSLTFLYDGIEIQADQTPEDLDMEDNDIIEAHREQIGGLEVLFQGPFLKHLTGPLYFSPKCSKHFHRLYHNTRDCTIPAYYKRCARLLTRLAVSPVCMEDKQ
B3: Ligand 020P (ligand)
chain: DGHHHHHHGSLQDSEVNQEAKPEVKPEVKPETHINLKVSDGSSEIFFKIKKTTPLRRLMEAFAKRQGKEMDSLTFLYDGIEIQADQTPEDLDMEDNDIIEAHREQIGGLEVLFQGPKHLTGPLYFSPKCSKHFHRLYHNTRDCTIPAYYKRCARLLTRLAVSPVCMEDKQ
B4: Ligand 022P (ligand)
chain: DGHHHHHHGSLQDSEVNQEAKPEVKPEVKPETHINLKVSDGSSEIFFKIKKTTPLRRLMEAFAKRQGKEMDSLTFLYDGIEIQADQTPEDLDMEDNDIIEAHREQIGGLEVLFQGPGPLYFSPKCSKHFHRLYHNTRDCTIPAYYKRCARLLTRLAVSPVCMEDKQ
B5: Ligand 021P (ligand)
chain: DGHHHHHHGSLQDSEVNQEAKPEVKPEVKPETHINLKVSDGSSEIFFKIKKTTPLRRLMEAFAKRQGKEMDSLTFLYDGIEIQADQTPEDLDMEDNDIIEAHREQIGGLEVLFQGPLTGPLYFSPKCSKHFHRLYHNTRDCTIPAYYKRCARLLTRLAVSPVCMEDKQ
B6: Ligand 001P (ligand)
chain: DGHHHHHHGSLQDSEVNQEAKPEVKPEVKPETHINLKVSDGSSEIFFKIKKTTPLRRLMEAFAKRQGKEMDSLTFLYDGIEIQADQTPEDLDMEDNDIIEAHREQIGGLEVLFQGPAAGAGRTPSGSRSAEIFPRDSNLKDKFIKHFTGPVTFSPECSKHFHRLYYNTRECSTPAYYKRCARLLTRLAVSPLCSQT

target: T1, ALK 001P; experiment: SPR, Biacore 8K; ALK 001P captured on Protein A chip, ligand as analyte, 6 concentrations from 20 nM
T1 construct: ALK (1-19) is described only as a region comprising a secretory signal, and no cleavage site is stated; Expressed in Expi293 cells and captured on a Protein A chip through its Fc

Binder | binding result
B1 | binds
B2 | binds
B3 | binds
B4 | binds
B5 | binds

target: T2, LTK 001P; experiment: SPR, Biacore 8K; receptor-Fc captured on Protein A chip, ligand as analyte
T2 construct: Expressed in Expi293 cells and captured on a Protein A chip through its Fc
Procedure: (§1) Whether or not ALK 001P and LTK 001P obtained in Example 5 had bound to Ligand 001P and Ligand 002P was examined using Biacore 8K instrument (GE Healthcare Japan) by the surface plasmon resonance (SPR) technique.
(§2) ALK 001P and LTK 001P were dissociated (i.e., regenerated) from Protein A coating the sensor chip surface (i.e., regeneration) by injecting 10 mM Glycine-HCl (pH 1.6) at a flow rate of 30 μl/min for 30 seconds. The bond dissociation curve modified by subtracting the baseline value was prepared using Biacore8K Evaluation Software (GE Healthcare Japan).

Binder | binding result
B6 | binds

target: T1, ALK 001P; experiment: as above
Procedure: as §1, §2

Binder | binding result
B6 | binds

target: T2, LTK 001P; experiment: SPR, Biacore 8K; LTK 001P captured on Protein A chip, ligand as analyte, 6 concentrations from 20 nM

Binder | binding result
B1 | binds
B2 | binds
B3 | binds
B4 | binds
B5 | binds
